Assays:
Test in all cases: EMSA
SETX-HD-DE/AA = target: T1, SETX-HD-DE/AA (Homo sapiens, UniProt Q7Z333 1674-2677, D2181A;E2182A)
T1 sequence: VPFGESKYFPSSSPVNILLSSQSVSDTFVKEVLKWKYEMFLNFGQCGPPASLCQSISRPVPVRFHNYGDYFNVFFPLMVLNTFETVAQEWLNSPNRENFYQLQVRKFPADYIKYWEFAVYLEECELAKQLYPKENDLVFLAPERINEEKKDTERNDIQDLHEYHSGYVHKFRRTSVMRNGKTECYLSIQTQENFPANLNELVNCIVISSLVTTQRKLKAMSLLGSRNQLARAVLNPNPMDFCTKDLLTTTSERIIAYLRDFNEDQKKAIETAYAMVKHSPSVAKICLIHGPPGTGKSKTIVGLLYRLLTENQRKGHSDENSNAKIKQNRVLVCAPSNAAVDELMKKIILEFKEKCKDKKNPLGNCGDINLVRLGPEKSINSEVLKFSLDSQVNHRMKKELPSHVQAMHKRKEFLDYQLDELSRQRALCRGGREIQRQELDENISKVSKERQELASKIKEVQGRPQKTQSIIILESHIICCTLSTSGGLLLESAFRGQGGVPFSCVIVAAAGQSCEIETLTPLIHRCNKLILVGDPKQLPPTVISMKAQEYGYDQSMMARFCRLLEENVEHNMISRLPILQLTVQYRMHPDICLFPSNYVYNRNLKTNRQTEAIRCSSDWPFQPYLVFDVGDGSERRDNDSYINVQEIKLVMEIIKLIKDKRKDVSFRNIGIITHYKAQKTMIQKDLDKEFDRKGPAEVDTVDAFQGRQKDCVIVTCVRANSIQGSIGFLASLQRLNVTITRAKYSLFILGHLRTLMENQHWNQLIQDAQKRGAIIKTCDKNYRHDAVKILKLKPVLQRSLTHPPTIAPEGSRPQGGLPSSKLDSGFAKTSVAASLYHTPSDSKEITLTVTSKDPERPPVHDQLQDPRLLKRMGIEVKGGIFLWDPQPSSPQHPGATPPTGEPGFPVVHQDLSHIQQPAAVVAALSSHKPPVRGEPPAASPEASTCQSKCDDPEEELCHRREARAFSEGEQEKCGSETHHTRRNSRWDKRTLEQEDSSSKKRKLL

Sen1-HD = target: T2, Sen1-HD (UniProt Q00416 1095-1904)
T2 sequence: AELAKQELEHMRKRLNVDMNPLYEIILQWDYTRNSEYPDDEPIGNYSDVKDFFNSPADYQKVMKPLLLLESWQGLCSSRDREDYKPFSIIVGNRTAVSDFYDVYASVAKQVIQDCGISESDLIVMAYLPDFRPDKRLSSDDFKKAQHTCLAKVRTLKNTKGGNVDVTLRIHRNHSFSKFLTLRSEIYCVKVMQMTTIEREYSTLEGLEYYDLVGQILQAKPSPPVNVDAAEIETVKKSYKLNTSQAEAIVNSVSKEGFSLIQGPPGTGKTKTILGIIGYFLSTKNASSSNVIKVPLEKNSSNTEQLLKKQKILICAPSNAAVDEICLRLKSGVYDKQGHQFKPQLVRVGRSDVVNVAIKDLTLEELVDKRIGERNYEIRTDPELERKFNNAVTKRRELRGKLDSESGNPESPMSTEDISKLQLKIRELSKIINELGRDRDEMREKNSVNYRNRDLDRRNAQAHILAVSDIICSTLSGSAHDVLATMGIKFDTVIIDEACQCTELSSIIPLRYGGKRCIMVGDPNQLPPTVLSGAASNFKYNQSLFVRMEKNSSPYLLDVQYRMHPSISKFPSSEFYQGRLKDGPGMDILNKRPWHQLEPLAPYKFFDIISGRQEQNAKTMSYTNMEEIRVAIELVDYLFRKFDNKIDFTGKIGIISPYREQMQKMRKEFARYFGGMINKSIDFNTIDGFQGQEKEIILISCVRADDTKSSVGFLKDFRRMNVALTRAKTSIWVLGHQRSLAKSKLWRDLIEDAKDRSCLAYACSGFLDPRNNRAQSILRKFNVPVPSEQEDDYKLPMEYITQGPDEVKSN

SETX-HD-R/H = target: T3, SETX-HD-R/H (Homo sapiens, UniProt Q7Z333 1674-2677, R2136H)
T3 sequence: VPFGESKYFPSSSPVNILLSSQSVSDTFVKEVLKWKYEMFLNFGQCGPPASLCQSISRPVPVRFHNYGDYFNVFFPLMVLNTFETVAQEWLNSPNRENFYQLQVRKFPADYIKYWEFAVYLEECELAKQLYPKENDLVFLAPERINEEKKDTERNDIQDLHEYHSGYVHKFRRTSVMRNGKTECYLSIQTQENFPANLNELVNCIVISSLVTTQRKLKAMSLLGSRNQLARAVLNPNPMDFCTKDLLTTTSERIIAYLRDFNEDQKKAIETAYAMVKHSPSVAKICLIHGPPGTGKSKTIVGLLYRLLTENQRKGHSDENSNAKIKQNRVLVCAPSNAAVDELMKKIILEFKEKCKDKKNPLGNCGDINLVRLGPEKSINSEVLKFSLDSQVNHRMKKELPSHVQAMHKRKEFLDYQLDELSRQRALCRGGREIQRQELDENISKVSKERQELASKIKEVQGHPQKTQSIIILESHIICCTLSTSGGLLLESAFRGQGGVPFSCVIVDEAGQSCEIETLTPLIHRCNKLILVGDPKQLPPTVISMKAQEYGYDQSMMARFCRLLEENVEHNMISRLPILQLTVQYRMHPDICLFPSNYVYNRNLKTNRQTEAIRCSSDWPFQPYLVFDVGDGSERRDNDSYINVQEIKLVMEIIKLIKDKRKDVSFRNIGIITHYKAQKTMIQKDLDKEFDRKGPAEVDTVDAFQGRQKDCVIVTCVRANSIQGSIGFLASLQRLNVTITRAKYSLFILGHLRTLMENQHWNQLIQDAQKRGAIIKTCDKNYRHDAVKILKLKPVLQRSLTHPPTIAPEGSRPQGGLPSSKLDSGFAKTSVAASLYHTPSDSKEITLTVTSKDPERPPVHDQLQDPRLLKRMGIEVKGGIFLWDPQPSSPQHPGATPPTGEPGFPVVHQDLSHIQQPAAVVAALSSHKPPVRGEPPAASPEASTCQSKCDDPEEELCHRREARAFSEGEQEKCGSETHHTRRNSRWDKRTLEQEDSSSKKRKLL

Measured: binding result

B1: ssDNA pRMS679 (61 nt) (ssDNA)
DNA: TTGTCTTCTCATAAATTTAATCCCCGTACGCTTATACTCCTTTAACTACCCAGTCTTCCCG
binds: all assays above
